Earlier results in article PMC7020651.

Legend:
[1] = biological target: Histone H4 1-12 (Homo sapiens) (UniProt P62805)
[2] = biological target: Histone H4 (Homo sapiens) (UniProt P62805); assay: ITC

| Kd [1] | Kd [2] | Substance |
| --- | --- | --- |
| 350 µM |  | P/CAF bromodomain (from UniProt Q92831) |
|  | 40 µM | TAFII250 tandem bromodomains (from UniProt P21675) |
